± gives the standard deviation of the averaged measurements.
How the values were obtained:
[1] = tested on: Saccharomyces cerevisiae; experiment: protein stability index of tFT-peptide fusion (C-terminal peptide) (PSI (0-1 scale)); higher = more stable (slower turnover)
Description: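 MPS profiling in S. cerevisiae of the tFT-X12 degron library: putative degron peptides plus stable controls, 12 aa, fused to the C-terminus of a sfGFP-mCherry timer. Cells are FACS-sorted into 8 mCherry/sfGFP bins and deep-sequenced. PSI runs from 0 (unstable) to 1 (stable). Backgrounds are wild type, das1Δ and doa10Δ at 30 °C, and wild type, das1Δ, cdc34-1 and cdc53-1 at 37 °C; 2-3 technical replicates each.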

[2] = tested on: Saccharomyces cerevisiae; experiment: as above; conditions: genetic background: wild type; temperature: 30 C
[3] = genetic background: cdc34-1, temperature: 37 C
[4] = genetic background: cdc53-1, temperature: 37 C
[5] = genetic background: das1 deletion, temperature: 30 C
[6] = genetic background: das1 deletion, temperature: 37 C
[7] = genetic background: doa10 deletion, temperature: 30 C
[8] = genetic background: wild type, temperature: 30 C
[9] = genetic background: wild type, temperature: 37 C
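Also: PSI is a weighted mean of sequencing reads over stability bins, variants kept only with over 10 reads, mCherry proximal and sfGFP distal, peptide attached via GGGS linker.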

| Sequence | protein stability index [1, 3] | protein stability index [1, 4] | protein stability index [1, 5] | protein stability index [1, 6] | protein stability index [1, 7] | protein stability index [1, 8] | protein stability index [1, 9] | protein stability index [2] |
| --- | --- | --- | --- | --- | --- | --- | --- | --- |
| TKKGQTRPSRTD | 0.634 ± 0.0078 | 0.6989 ± 0.0024 | 0.642 ± 0.034 | 0.705 ± 0.017 | 0.6444 ± 0.0049 | 0.687 ± 0.029 | 0.696 ± 0.017 | 0.575 ± 0.21 |
| TLKRCFRWCRTT | 0.492 ± 0.095 | 0.71 ± 0.05 | 0.672 ± 0.018 | 0.699 ± 0.0095 | 0.105 ± 0.0068 | 0.11 ± 0.011 | 0.157 ± 0.031 | 0.176 ± 0.0047 |
| TLSRTPVSPSAP | 0.686 ± 0.051 | 0.738 ± 0.017 | 0.637 ± 0.018 | 0.706 ± 0.021 | 0.674 ± 0.032 | 0.6492 ± 0.0015 | 0.696 ± 0.022 | 0.7094 ± 0.0059 |
| TMSGVTRCVLVL | 0.521 ± 0.048 | 0.526 ± 0.04 | 0.385 ± 0.026 | 0.5463 ± 0.0053 | 0.339 ± 0.015 | 0.395 ± 0.02 | 0.5379 ± 0.0049 | 0.423 ± 0.015 |
| TNEWMDVKVFCY | 0.668 ± 0.0073 | 0.701 ± 0.052 | 0.499 ± 0.049 | 0.676 ± 0.0097 | 0.449 ± 0.028 | 0.486 ± 0.04 | 0.6398 ± 0.0051 | 0.491 ± 0.088 |
| TSFSSGEALGVG | 0.437 ± 0.0066 | 0.503 ± 0.021 | 0.442 ± 0.0075 | 0.5 ± 0.0091 | 0.4553 ± 0.0011 | 0.445 ± 0.013 | 0.48763 ± 3.8e-05 | 0.483 ± 0.01 |
| TVHVIVVCRELA | 0.4698 ± 0.0034 | 0.518 ± 0.015 | 0.39 ± 0.03 | 0.52 ± 0.017 | 0.201 ± 0.014 | 0.244 ± 0.025 | 0.381 ± 0.007 | 0.3271 ± 0.0022 |
| TVRLPLILPCVL | 0.5752 ± 0.0049 | 0.573 ± 0.031 | 0.421 ± 0.028 | 0.5669 ± 0.0053 | 0.414 ± 0.0034 | 0.42 ± 0.025 | 0.55 ± 0.013 | 0.4884 ± 0.0042 |
| TVRVWPRNLWFS | 0.519 ± 0.048 | 0.677 ± 0.017 | 0.639 ± 0.021 | 0.7273 ± 0.0018 | 0.111 ± 0.0029 | 0.111 ± 0.021 | 0.235 ± 0.031 | 0.176 ± 0.021 |
| TWGGGRVSLGVG | 0.313 ± 0.029 | 0.3966 ± 0.0028 | 0.326 ± 0.011 | 0.405 ± 0.018 | 0.3442 ± 0.0015 | 0.359 ± 0.044 | 0.401 ± 0.022 | 0.328 ± 0.016 |
| TYHRSYLLATVV | 0.49857 ± 0.00019 | 0.55 ± 0.08 | 0.378 ± 0.028 | 0.543 ± 0.016 | 0.181 ± 0.0023 | 0.224 ± 0.024 | 0.331 ± 0.00026 | 0.314 ± 0.025 |
| VACTCILVALVV | 0.059 ± 0.0069 | 0.164 ± 0.02 | 0.0772 ± 0.027 | 0.198 ± 0.0045 | 0.0424 ± 0.0038 | 0.0686 ± 0.035 | 0.165 ± 0.005 | 0.142 ± 0.035 |
| VAFLYCHFFYCI | 0.502 ± 0.063 | 0.531 ± 0.013 | 0.391 ± 0.029 | 0.53095 ± 0.00027 | 0.342 ± 0.0038 | 0.37 ± 0.014 | 0.47 ± 0.009 | 0.415 ± 0.013 |
| VAVFFFCRVFFL | 0.248 ± 0.062 | 0.339 ± 0.005 | 0.221 ± 0.037 | 0.412 ± 0.0042 | 0.186 ± 0.02 | 0.211 ± 0.024 | 0.318 ± 0.04 | 0.289 ± 0.026 |
| VCCYILFFLFPV | 0.401 ± 0.0048 | 0.522 ± 0.008 | 0.349 ± 0.025 | 0.568 ± 0.024 | 0.322 ± 0.0058 | 0.337 ± 0.026 | 0.506 ± 0.018 | 0.418 ± 0.011 |
| VCLRICLVTLMM | 0.3 ± 0.019 | 0.444 ± 0.011 | 0.284 ± 0.032 | 0.4615 ± 0.0026 | 0.2405 ± 0.0017 | 0.261 ± 0.033 | 0.4126 ± 0.0014 | 0.428 ± 0.03 |
| VCPCCPYVMIAG | 0.598 ± 0.061 | 0.641 ± 0.04 | 0.498 ± 0.027 | 0.647 ± 0.0012 | 0.318 ± 0.0013 | 0.336 ± 0.043 | 0.494 ± 0.0062 | 0.489 ± 0.018 |
| VCSCLVLVFCCC | 0.232 ± 0.018 | 0.222 ± 0.018 | 0.232 ± 0.036 | 0.318 ± 0.0068 | 0.207 ± 0.025 | 0.237 ± 0.015 | 0.285 ± 0.024 | 0.298 ± 0.037 |
| VCVARICIWDFL | 0.505 ± 0.043 | 0.589 ± 0.027 | 0.446 ± 0.035 | 0.594 ± 0.014 | 0.413 ± 0.0074 | 0.438 ± 0.013 | 0.596 ± 0.0092 | 0.51 ± 0.033 |
| VCWVYESWKCLA | 0.438 ± 0.038 | 0.571 ± 0.043 | 0.536 ± 0.027 | 0.672 ± 0.0075 | 0.0888 ± 0.014 | 0.103 ± 0.0097 | 0.107 ± 0.013 | 0.168 ± 0.026 |

| Sequence | protein stability index [1, 3] | protein stability index [1, 4] | protein stability index [1, 5] | protein stability index [1, 6] | protein stability index [1, 7] | protein stability index [1, 8] | protein stability index [1, 9] | protein stability index [2] |
| --- | --- | --- | --- | --- | --- | --- | --- | --- |
| VCYLMRSLTFAY | 0.4968 ± 0.0039 | 0.546 ± 0.006 | 0.345 ± 0.029 | 0.494 ± 0.0096 | 0.319 ± 0.021 | 0.337 ± 0.024 | 0.4733 ± 0.0016 | 0.45 ± 0.0099 |
| VECVCVVVVRRM | 0.391 ± 0.0055 | 0.497 ± 0.03 | 0.313 ± 0.023 | 0.493 ± 0.01 | 0.266 ± 0.0088 | 0.31 ± 0.021 | 0.466 ± 0.021 | 0.351 ± 0.017 |
| VFLCVRLGFIFL | 0.419 ± 0.0062 | 0.486 ± 0.0065 | 0.359 ± 0.029 | 0.529 ± 0.012 | 0.404 ± 0.02 | 0.352 ± 0.023 | 0.471 ± 0.023 | 0.446 ± 0.026 |
| VFLLCLGFLVFS | 0.263 ± 0.011 | 0.341 ± 0.046 | 0.258 ± 0.025 | 0.4083 ± 0.0018 | 0.241 ± 0.024 | 0.275 ± 0.02 | 0.3886 ± 0.0038 | 0.336 ± 0.038 |
| VFLRRFGVPWVF | 0.594 ± 0.016 | 0.664 ± 0.019 | 0.493 ± 0.029 | 0.661 ± 0.016 | 0.198 ± 0.0071 | 0.227 ± 0.02 | 0.429 ± 0.0074 | 0.365 ± 0.017 |
| VFLSCFFVSWVV | 0.328 ± 0.019 | 0.403 ± 0.047 | 0.226 ± 0.027 | 0.40329 ± 5.2e-05 | 0.202 ± 0.011 | 0.204 ± 0.015 | 0.369 ± 0.03 | 0.3269 ± 0.0017 |
| VFLYVYAVWFLV | 0.156 ± 0.027 | 0.228 ± 0.0084 | 0.198 ± 0.042 | 0.321 ± 0.0075 | 0.1102 ± 0.00096 | 0.119 ± 0.053 | 0.118 ± 0.023 | 0.164 ± 0.025 |
| VFSFLYHVVPVL | 0.4374 ± 0.0012 | 0.49 ± 0.013 | 0.36 ± 0.028 | 0.505 ± 0.01 | 0.324 ± 0.018 | 0.348 ± 0.024 | 0.4554 ± 0.0018 | 0.441 ± 0.01 |
| VFVMRDGFLRKV | 0.63323 ± 0.00049 | 0.7055 ± 0.004 | 0.636 ± 0.022 | 0.748 ± 0.025 | 0.301 ± 0.013 | 0.341 ± 0.015 | 0.4507 ± 0.0016 | 0.374 ± 0.044 |
| VFWISRLYLASY | 0.474 ± 0.027 | 0.524 ± 0.023 | 0.442 ± 0.037 | 0.588 ± 0.012 | 0.42 ± 0.017 | 0.362 ± 0.023 | 0.52 ± 0.02 | 0.456 ± 0.02 |
| VGDFFVLVGFVA | 0.493 ± 0.0097 | 0.538 ± 0.011 | 0.386 ± 0.028 | 0.547 ± 0.0057 | 0.336 ± 0.0095 | 0.382 ± 0.022 | 0.5219 ± 0.0043 | 0.492 ± 0.053 |
| VGDIRSFALWYA | 0.699 ± 0.039 | 0.765 ± 0.014 | 0.661 ± 0.015 | 0.74 ± 0.0047 | 0.656 ± 0.038 | 0.646 ± 0.011 | 0.707 ± 0.011 | 0.745 ± 0.041 |
| VGGGGRFWVCVG | 0.657 ± 0.03 | 0.73937 ± 0.00061 | 0.629 ± 0.0064 | 0.737 ± 0.011 | 0.2122 ± 0.0019 | 0.237 ± 0.025 | 0.552 ± 0.031 | 0.406 ± 0.04 |
| VGVSCLVFFGVV | 0.644 ± 0.023 | 0.653 ± 0.0091 | 0.511 ± 0.017 | 0.6636 ± 0.0025 | 0.484 ± 0.026 | 0.509 ± 0.021 | 0.633 ± 0.0085 | 0.549 ± 0.11 |
| VIAYSLLSWGDF | 0.308 ± 0.0034 | 0.341 ± 0.019 | 0.378 ± 0.04 | 0.319 ± 0.023 | 0.403 ± 0.029 | 0.371 ± 0.021 | 0.305 ± 0.016 | 0.371 ± 0.028 |
| VLDFSVPRHVLH | 0.696 ± 0.014 | 0.7655 ± 0.0041 | 0.66 ± 0.0056 | 0.7364 ± 0.0016 | 0.661 ± 0.013 | 0.678 ± 0.035 | 0.7472 ± 0.0033 | 0.707 ± 0.024 |
| VLFFCLVIYVGV | 0.187 ± 0.0071 | 0.23702 ± 9.6e-05 | 0.183 ± 0.015 | 0.29 ± 0.035 | 0.141 ± 0.015 | 0.187 ± 0.027 | 0.26 ± 0.0013 | 0.217 ± 0.018 |
| VLILFFLVVFYV | 0.217 ± 0.015 | 0.294 ± 0.0088 | 0.267 ± 0.033 | 0.347 ± 0.018 | 0.2543 ± 0.0024 | 0.237 ± 0.021 | 0.3358 ± 0.0033 | 0.262 ± 0.037 |
| VLLCASPMLAVV | 0.343 ± 0.028 | 0.356 ± 0.022 | 0.289 ± 0.024 | 0.423 ± 0.0087 | 0.249 ± 0.0027 | 0.297 ± 0.011 | 0.39 ± 0.0039 | 0.393 ± 0.03 |

Reference: the supplement of paper PMC10724198
